These results are taken from the supplement of paper PMC9428881.

The data set is described as follows: background-corrected fluorescence of 3'-dye-labeled ssDNA relative to brightest sequence (3'-GCGCG) (fraction); higher = brighter dye fluorescence (less quenching). The essentials:
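Subtracting background from unlabeled oligos and scaling to the brightest sequence gave the reported fluorescence. Single-stranded DNA bearing a 3' Cy3 or Cy5 dye next to each of 1024 permuted pentamers was assembled on glass slides by light-directed phosphoramidite synthesis. Following a 2 h r.t. acetonitrile wash, slides were scanned at 532 or 635 nm before and after overnight ethylenediamine/ethanol deprotection, and values were averaged over 10 features per array and at least 3 syntheses.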

± gives the standard error.

On to “TTTTTTGCTGCTCATGATGATTTTTTTTTTTTTTTAAGCC [CCGAA]”, for which the background-corrected fluorescence is, setting by setting: (dye: Cy3 (3' terminal)) 0.443 ± 0.01; (dye: Cy5 (3' terminal)) 0.312 ± 0.023.

“TTTTTTGCTGCTCATGATGCTTTTTTTTTTTTTTTAAGCA [ACGAA]”: the background-corrected fluorescence (dye: Cy3 (3' terminal)) was determined as 0.571 ± 0.014 and the background-corrected fluorescence (dye: Cy5 (3' terminal)) amounted to 0.451 ± 0.026.

Take “TTTTTTGCTGCTCATGCGCATTTTTTTTTTTTTTTAAGAT [TAGAA]”: the background-corrected fluorescence was 0.564 ± 0.024 (dye: Cy3 (3' terminal)) and 0.496 ± 0.081 (dye: Cy5 (3' terminal)).

“TTTTTTGCTGCTCATGCTCATTTTTTTTTTTTTTTAAGAG [GAGAA]”: the background-corrected fluorescence reads like this: (dye: Cy3 (3' terminal)) 0.607 ± 0.036; (dye: Cy5 (3' terminal)) 0.489 ± 0.086.

With “TTTTTTGCTGCTCATGCTGATTTTTTTTTTTTTTTAAGAC [CAGAA]”, the background-corrected fluorescence is 0.485 ± 0.015 (dye: Cy3 (3' terminal)) and 0.363 ± 0.018 (dye: Cy5 (3' terminal)).

For the sequence “TTTTTTGCTGCTCATGCTGCTTTTTTTTTTTTTTTAAGAA”, the background-corrected fluorescence was found to be 0.619 ± 0.015 (dye: Cy3 (3' terminal)) and 0.481 ± 0.022 (dye: Cy5 (3' terminal)).

With “TTTTTTGCTGCTGAGCAGCATTTTTTTTTTTTTTTAACTT [TTCAA]”, the background-corrected fluorescence was 0.523 ± 0.0097 (dye: Cy3 (3' terminal)) and 0.362 ± 0.026 (dye: Cy5 (3' terminal)).

Take “TTTTTTGCTGCTGAGCATCATTTTTTTTTTTTTTTAACTG [GTCAA]”: the background-corrected fluorescence is 0.547 ± 0.024 (dye: Cy3 (3' terminal)) and 0.381 ± 0.029 (dye: Cy5 (3' terminal)).

“TTTTTTGCTGCTGAGCATGATTTTTTTTTTTTTTTAACTC [CTCAA]” came in with a background-corrected fluorescence (dye: Cy3 (3' terminal)) of 0.418 ± 0.028 and a background-corrected fluorescence (dye: Cy5 (3' terminal)) of 0.293 ± 0.019.

Regarding “TTTTTTGCTGCTGAGCATGCTTTTTTTTTTTTTTTAACTA [ATCAA]”, the background-corrected fluorescence (dye: Cy3 (3' terminal)) amounted to 0.5388 ± 0.0047 and the background-corrected fluorescence (dye: Cy5 (3' terminal)) stood at 0.406 ± 0.019.

On to “TTTTTTGCTGCTGATCAGCATTTTTTTTTTTTTTTAACGT [TGCAA]”, for which the background-corrected fluorescence was found to be 0.606 ± 0.023 (dye: Cy3 (3' terminal)) and 0.45 ± 0.025 (dye: Cy5 (3' terminal)).

Turning to “TTTTTTGCTGCTGATCATCATTTTTTTTTTTTTTTAACGG [GGCAA]”, the background-corrected fluorescence reads like this: (dye: Cy3 (3' terminal)) 0.652 ± 0.019; (dye: Cy5 (3' terminal)) 0.552 ± 0.04.

Consider “TTTTTTGCTGCTGATCATGATTTTTTTTTTTTTTTAACGC [CGCAA]”, for which the background-corrected fluorescence was 0.547 ± 0.021 (dye: Cy3 (3' terminal)) and 0.436 ± 0.057 (dye: Cy5 (3' terminal)).

Turning to “TTTTTTGCTGCTGATCATGCTTTTTTTTTTTTTTTAACGA [AGCAA]”, the background-corrected fluorescence worked out at 0.613 ± 0.0098 (dye: Cy3 (3' terminal)) and 0.519 ± 0.07 (dye: Cy5 (3' terminal)).

Take “TTTTTTGCTGCTGATGAGCATTTTTTTTTTTTTTTAACCT [TCCAA]”: the background-corrected fluorescence was found to be 0.459 ± 0.016 (dye: Cy3 (3' terminal)) and 0.36 ± 0.039 (dye: Cy5 (3' terminal)).

Sequence “TTTTTTGCTGCTGATGATCATTTTTTTTTTTTTTTAACCG [GCCAA]” had a background-corrected fluorescence (dye: Cy3 (3' terminal)) of 0.545 ± 0.036 and a background-corrected fluorescence (dye: Cy5 (3' terminal)) of 0.42 ± 0.035.

As to “TTTTTTGCTGCTGATGATGATTTTTTTTTTTTTTTAACCC [CCCAA]”, the background-corrected fluorescence (dye: Cy3 (3' terminal)) came out at 0.392 ± 0.021 and the background-corrected fluorescence (dye: Cy5 (3' terminal)) stood at 0.294 ± 0.016.

On to “TTTTTTGCTGCTGATGATGCTTTTTTTTTTTTTTTAACCA [ACCAA]”, for which the background-corrected fluorescence by setting is: (dye: Cy3 (3' terminal)) 0.492 ± 0.017; (dye: Cy5 (3' terminal)) 0.375 ± 0.053.

Regarding “TTTTTTGCTGCTGATGCGCATTTTTTTTTTTTTTTAACAT [TACAA]”, the background-corrected fluorescence is, setting by setting: (dye: Cy3 (3' terminal)) 0.529 ± 0.035; (dye: Cy5 (3' terminal)) 0.374 ± 0.021.

Sequence “TTTTTTGCTGCTGATGCTCATTTTTTTTTTTTTTTAACAG [GACAA]” had a background-corrected fluorescence (dye: Cy3 (3' terminal)) of 0.576 ± 0.02 and a background-corrected fluorescence (dye: Cy5 (3' terminal)) of 0.421 ± 0.019.

Take “TTTTTTGCTGCTGATGCTGATTTTTTTTTTTTTTTAACAC [CACAA]”: the background-corrected fluorescence is, setting by setting: (dye: Cy3 (3' terminal)) 0.421 ± 0.035; (dye: Cy5 (3' terminal)) 0.306 ± 0.021.

Consider “TTTTTTGCTGCTGATGCTGCTTTTTTTTTTTTTTTAACAA”, for which the background-corrected fluorescence runs as follows: (dye: Cy3 (3' terminal)) 0.527 ± 0.024; (dye: Cy5 (3' terminal)) 0.419 ± 0.024.

Turning to “TTTTTTGCTGCTGCGCAGCATTTTTTTTTTTTTTTAAATT”, the background-corrected fluorescence reads like this: (dye: Cy3 (3' terminal)) 0.543 ± 0.048; (dye: Cy5 (3' terminal)) 0.401 ± 0.019.

In the case of “TTTTTTGCTGCTGCGCATCATTTTTTTTTTTTTTTAAATG [GTAAA]”, the background-corrected fluorescence stood at 0.499 ± 0.015 (dye: Cy3 (3' terminal)) and 0.375 ± 0.035 (dye: Cy5 (3' terminal)).

Turning to “TTTTTTGCTGCTGCGCATGATTTTTTTTTTTTTTTAAATC [CTAAA]”, the background-corrected fluorescence (dye: Cy3 (3' terminal)) amounted to 0.439 ± 0.019 and the background-corrected fluorescence (dye: Cy5 (3' terminal)) is 0.306 ± 0.019.

For “TTTTTTGCTGCTGCGCATGCTTTTTTTTTTTTTTTAAATA [ATAAA]”, the background-corrected fluorescence worked out at 0.564 ± 0.053 (dye: Cy3 (3' terminal)) and 0.451 ± 0.031 (dye: Cy5 (3' terminal)).

Take “TTTTTTGCTGCTGCTCAGCATTTTTTTTTTTTTTTAAAGT [TGAAA]”: the background-corrected fluorescence was determined as 0.653 ± 0.026 (dye: Cy3 (3' terminal)) and 0.514 ± 0.049 (dye: Cy5 (3' terminal)).

With “TTTTTTGCTGCTGCTCATCATTTTTTTTTTTTTTTAAAGG [GGAAA]”, the background-corrected fluorescence stood at 0.646 ± 0.026 (dye: Cy3 (3' terminal)) and 0.502 ± 0.032 (dye: Cy5 (3' terminal)).

Turning to “TTTTTTGCTGCTGCTCATGATTTTTTTTTTTTTTTAAAGC [CGAAA]”, the background-corrected fluorescence is, setting by setting: (dye: Cy3 (3' terminal)) 0.538 ± 0.018; (dye: Cy5 (3' terminal)) 0.426 ± 0.021.

Sequence “TTTTTTGCTGCTGCTCATGCTTTTTTTTTTTTTTTAAAGA [AGAAA]” gave a background-corrected fluorescence (dye: Cy3 (3' terminal)) of 0.693 ± 0.03 and a background-corrected fluorescence (dye: Cy5 (3' terminal)) of 0.568 ± 0.03.

With “TTTTTTGCTGCTGCTGAGCATTTTTTTTTTTTTTTAAACT [TCAAA]”, the background-corrected fluorescence by setting is: (dye: Cy3 (3' terminal)) 0.496 ± 0.0053; (dye: Cy5 (3' terminal)) 0.349 ± 0.028.

Regarding “TTTTTTGCTGCTGCTGATCATTTTTTTTTTTTTTTAAACG [GCAAA]”, the background-corrected fluorescence by setting is: (dye: Cy3 (3' terminal)) 0.559 ± 0.023; (dye: Cy5 (3' terminal)) 0.426 ± 0.028.

Consider “TTTTTTGCTGCTGCTGATGATTTTTTTTTTTTTTTAAACC [CCAAA]”, for which the background-corrected fluorescence by setting is: (dye: Cy3 (3' terminal)) 0.403 ± 0.035; (dye: Cy5 (3' terminal)) 0.29 ± 0.015.

Take “TTTTTTGCTGCTGCTGATGCTTTTTTTTTTTTTTTAAACA [ACAAA]”: the background-corrected fluorescence was 0.51 ± 0.039 (dye: Cy3 (3' terminal)) and 0.407 ± 0.023 (dye: Cy5 (3' terminal)).

With “TTTTTTGCTGCTGCTGCGCATTTTTTTTTTTTTTTAAAAT”, the background-corrected fluorescence is, setting by setting: (dye: Cy3 (3' terminal)) 0.596 ± 0.022; (dye: Cy5 (3' terminal)) 0.462 ± 0.077.

Consider “TTTTTTGCTGCTGCTGCTCATTTTTTTTTTTTTTTAAAAG [GAAAA]”, for which the background-corrected fluorescence reads like this: (dye: Cy3 (3' terminal)) 0.576 ± 0.021; (dye: Cy5 (3' terminal)) 0.403 ± 0.03.

In the case of “TTTTTTGCTGCTGCTGCTGATTTTTTTTTTTTTTTAAAAC [CAAAA]”, the background-corrected fluorescence runs as follows: (dye: Cy3 (3' terminal)) 0.461 ± 0.048; (dye: Cy5 (3' terminal)) 0.321 ± 0.019.

Regarding “TTTTTTGCTGCTGCTGCTGCTTTTTTTTTTTTTTTAAAAA”, the background-corrected fluorescence is 0.593 ± 0.0096 (dye: Cy3 (3' terminal)) and 0.476 ± 0.026 (dye: Cy5 (3' terminal)).
